According to patent US11648295B2, “Methods of treating diseases resulting from a maladapted stress response” (Cortene Inc., priority 2016, dated 2023):
No end group written: not given here.

Tests used:
[1] = molecular target: T1, CRFR1 (Homo sapiens, UniProt P34998); assay: in vitro binding potential for CRFR1 (table of FIG. 10); format: biochemical
T1 sequence (P34998 24-415): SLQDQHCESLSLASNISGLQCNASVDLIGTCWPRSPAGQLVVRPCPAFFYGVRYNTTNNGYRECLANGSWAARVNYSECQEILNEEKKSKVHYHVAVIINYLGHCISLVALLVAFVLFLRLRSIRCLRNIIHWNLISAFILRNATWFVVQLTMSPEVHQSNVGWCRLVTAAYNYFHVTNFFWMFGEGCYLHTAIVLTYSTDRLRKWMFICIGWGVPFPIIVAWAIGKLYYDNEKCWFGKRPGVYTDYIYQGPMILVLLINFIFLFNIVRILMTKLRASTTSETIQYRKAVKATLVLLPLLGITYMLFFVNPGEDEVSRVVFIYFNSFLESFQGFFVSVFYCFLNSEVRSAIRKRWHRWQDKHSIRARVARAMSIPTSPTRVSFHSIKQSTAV

[2] = molecular target: T2, CRFR2 (Homo sapiens, UniProt Q13324); assay: in vitro potency / binding potential for CRFR2 (table of FIG. 10); format: biochemical
T2 sequence (Q13324 1-411): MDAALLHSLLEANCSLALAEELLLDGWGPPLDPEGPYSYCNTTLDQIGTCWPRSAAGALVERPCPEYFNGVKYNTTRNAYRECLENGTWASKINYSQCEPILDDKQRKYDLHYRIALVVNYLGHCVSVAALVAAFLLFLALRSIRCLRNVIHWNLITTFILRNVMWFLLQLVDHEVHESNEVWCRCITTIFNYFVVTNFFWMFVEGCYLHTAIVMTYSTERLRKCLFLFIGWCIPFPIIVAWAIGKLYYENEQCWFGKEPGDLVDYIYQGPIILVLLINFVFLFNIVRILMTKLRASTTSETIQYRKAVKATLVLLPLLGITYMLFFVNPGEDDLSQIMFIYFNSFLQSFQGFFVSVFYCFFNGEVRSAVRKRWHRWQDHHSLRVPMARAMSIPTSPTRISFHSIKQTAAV

[3] = test system: stable congestive heart failure patients; details: escalating i.v. infusion over 3 hours; cited from earlier work
[4] = molecular target: CRFR1 (Homo sapiens, UniProt P34998); assay: EC50, nmol (% of Emax) | CRFR1
From the text: (§1) Table printed on a drawing sheet, FIGURE 10
(§2) Title: Pharmacokinetic Parameters
Head of the field: EC50, nmol (% of Emax) | CRFR1
(§3) Footnotes: FIGURE 10: Effect of maximum or steady state plasma concentrations (Cmax or Css) of various CRFR2 agonists (CT38, SCP or Ucn2), dosed by subcutaneous bolus (triangles) or intravenous infusion (circles), on the maximum heart rate (HRmax) in healthy subjects (solid lines) or stable congestive heart failure patients (dashed lines). The table provides comparative pharmacokinetic parameters for the CRFR2 agonists.
(§4) That is, for strongly potent CRFR2 agonists and relative intermediate plasma concentrations, the loss of the ability to induce a heart rate increase via continuous dosing, was driven by the duration of dosing, and appeared to occur with different selective CRFR2 agonists (e.g., Ucn2, stresscopin), irrespective of the condition of the human subject.
(§5) First copying reader's note: Each EC50 cell holds the EC50 in nmol with the % of Emax in brackets after it.
Where the first naming reader finds the target: head: EC50, nmol (% of Emax) | CRFR1

[5] = molecular target: T2, CRFR2; assay: EC50, nmol (% of Emax) | CRFR2
From the text: as §1, §2
Head of the field: EC50, nmol (% of Emax) | CRFR2
as §3, §4, §5
Where the first naming reader finds the target: head: EC50, nmol (% of Emax) | CRFR2

For “Ucn3: endogenous CRFR2-selective agonist peptide, used as a proxy for SCP (FTLSLDVPTNIMNLLFNIAKAKNLRAQAAANAHLMAQI) [listing 1 of 2 here]”, the “in vitro binding potential for CRFR1” value [1] was “weak binding potential for CRFR1 (minimal, at moderate concentrations)” and the “in vitro binding potential for CRFR2” value [2] was “strong binding potential for CRFR2 (maximal, at low concentrations)”.
For “stresscopin (FTLSLDVPTNIMNLLFNIAKAKNLRAQAAANAHLMAQI; ends and bridges not checked; UniProt Q969E3 120-157, looked up)”, the “pattern of effect on heart rate versus Ucn2” value [3] is given as “very similar”.
In the case of “Ucn3: endogenous CRFR2-selective agonist peptide, used as a proxy for SCP (FTLSLDVPTNIMNLLFNIAKAKNLRAQAAANAHLMAQI) [listing 2 of 2 here]”, the “EC50, nmol (% of Emax) | CRFR1” value [4] was > 1000 (10) nmol (% of Emax) and the “EC50, nmol (% of Emax) | CRFR2” value [5] was > 100 (60) nmol (% of Emax).
